Experimental data: paper PMC2881812

Target: p22(79-227) (T. brucei)
Assay: SEC

For p22(79-227) (domain or fragment), the stoichiometry N was 3.
